Where two headings read alike, the source gives them in different places.
Assays:
[1] = tested on: mitochondrial metabolism in HUVECs; assay: NAD+/NADH cycling, ATP, glucose and lactate assays in HUVECs; type: cell-based, human
Description: HUVECs plated into 100 mm dishes were treated with COCO for various time points. NAD+ and NADH were extracted using ice cold alkali (0.5M NaOH, 1 mM EDTA) and acidic buffers (0.1M HCl) respectively. Extracts were heated at 60° C. for 30 min and buffers were neutralized with either the NADH (100 mM Tris-HCl pH 8.1, 0.05M HCl) or NAD+(0.4M Tris) neutralization buffers. To attain measurable quantities of NAD+ or NADH, an amplifying cycling assay was performed. Extracts and NAD+ standards were incubated with cycling reagent (67 mM Tris-HCl pH 8, 200 mM EtOH, 1.3 mM beta-mercaptoethanol, 0.01% BSA, 2 mM oxaloacetic acid, 0.5 μg/mL malate dehydrogenase, 5 μg/mL alcohol dehydrogenase) for 1 hour at room temperature. All samples were heated for 5 min at 100 C to stop enzymatic reactions then cooled on ice. For detection, extracts were incubated in an indicator buffer (50 mM 2-amino-2-methyl-propanol pH 9.9, 200 μM NAD+, 10 mM glutamate, 0.04% BSA, 5 μg/mL malate dehydrogenase, 2 μg/mL glutamate oxaloacetate transaminase) for 10 min at room temperature. Then 100 μL if sample was transferred to a black 96-well plate. Fluorescence was detected using a plate reader (TECAN) at an excitation of 365 nm and emission of 460 nm. Standard curves were generated and the concentration of NAD+ and NADH were calculated from the standard curve (references: Kato T., et al. Analytical Biochemistry 53, 86-97 (1973); Lin S., et al, JBC. Vol 276, No. 38, 36000-36007 (2001)).
ATP detection: HUVECs were plated into 100 mm dishes and treated with COCO for various time points. ATP was measured by luminescence (ATP Detection Assay Kit; Cayman Chemicals). Metabolite measurements: HUVECs were cultured for up to 48 hours in the presence or absence of COCO. Culture media was collected at 1 h, 3 h, 6 h, 12 h, 24 h and 48 h, centrifuged at 12000 rpm for 5 min, aliquoted and stored at −80 C. Media was analyzed for glucose concentration using a BioProfiler 400 Analyzer (BioNova). For measurements of lactate, the culture media was analyzed using the Lactate Colorimetric/Fluorometric Assay Kit (BioVision, K607) as per the manufacturer's instructions.
We exposed or not HUVECs to recombinant DAND5 and measured the concentration of free radicals using DCFDA and MitoSoxRed™. […] To further test this, we measure the NAD+/NADH ratio in cells treated or not with DAND5. […] Likewise, glucose uptake was reduced and lactate levels were increased in DAND5-treated HUVECs after 1 h (FIG. 8E, lower panel).

[2] = tested on: retinal vascular development; type: in vivo, mouse
Description: Animals were anaesthetized with isofluorane. A 10 μL Hamilton syringe with a glass-pulled capillary was inserted with a 45° injection angle into the vitreous. When accessing the role of DAND5 developmentally, animals were injected at P1 (DAND5:100 ng; or PBS: 1 μl) and were euthanized at P5 to quantify vascular growth. The DAND5 used for the injection was a human recombinant DAND5/COCO biologically active fragment produced in E. coli and purified by SDS-PAGE (Arg23-Ala189 with an N-terminal Met, predicted 18.2 kDa monomer, R&D systems; 3047-CC-050). During the neovascularization phase of OIR, animals were injected at P12 (2 μL) before sacrifice at P17 for quantification of neovascularization. For adult mice and laser-induced neovascularization, intravitreal injections were performed under a surgical microscope. Mice were anaesthetized with isofluorane. Pupils were dilated using 1% tropicamide. A 33-gauge needle was inserted from the limbus with a 45° injection angle into the vitreous. The direction and location of the needle was monitored through the surgical microscope.
Ocular globes were initially fixed for 15 min in 4% paraformaldehyde (PFA). Retinas or choroids were collected after eyes dissection in PBS and blocked 1 h in PBS 3% BSA 0.1% Triton X-100™. Fixation was prolonged in 1% PFA overnight for choroid extraction or eyes sectioning. Prior to sectioning, eyes were maintained in sucrose gradients (10-30%), cryo-preserved in a matrix gel and sliced in 14 μm sections on a cryostat (Leica™ CM3050S). Staining with either FITC-labeled isolectin GS 1B4 (Life technologies corporation), rhodamine phalloidin (Cedarlane Laboratories), phospho-histone H3 (Abcam), Collagen IV (Abcam) or cleaved caspase-3 (Cell Signaling) antibodies were performed on whole and/or sectioned retinas/choroids. Retinas and choroids were then mounted in fluoromount aqueous medium (Sigma-Aldrich). Quantitative analysis of tufts, vaso-obliterated or vessel areas were performed using imageJ/Swift_NV™ as previously described (1). Neovascular tuft formation was quantified by comparing the number of pixels in the affected areas with the total number of pixels in the retina. The avascular area in the retina was measured in the same way using an anti-DAND5/COCO polyclonal goat IgG antibody (AF3047, R&D systems).
As DAND5 prevents VEGF-induced EC sprouting, proliferation and migration, we evaluated whether it could inhibit retinal vascular development. Newborn mouse pups (P1) received intravitreal injections of recombinant DAND5 (100 ng), and retinas were harvested after 4 days (P5) (FIG. 2A).
Blood vessels constrict in the course of vessel regression and EC retract, leaving behind empty BM sleeves.

mitochondria = assay: Immunofluorescence localization of DAND5 in treated HUVECs; type: cell-based, human; settings: HUVECs exposed for 1 h
Description: FIG. 9: HUVECs were plated to confluence and exposed or not to Dand5 for 1 hour. Dand5 was not detected before treatment in HUVECs (not shown).
To test where DAND5 is localizes in treated HUVECs, we exposed HUVECs to human recombinant DAND5 for 1 h and performed immune-fluorescence using human anti-mitochondrial antigen antibody and a human anti-DAND5 antibody.

[3] = 100 ng at P1, P5, compared with PBS-injected eyes

B1: DAND5: human recombinant DAND5/COCO biologically active fragment produced in E. coli, predicted 18.2 kDa monomer, R&D systems 3047-CC-050 (protein)
chain: MRPEPQSPRPQSWAAANQTWALGPGALPPLVPASALGSWKAFLGLQKARQLGMGRLQRGQDEVAAVTLPLNPQEVIQGMCKAVPFVQVFSRPGCSAIRLRNHLCFGHCSSLYIPGSDPTPLVLCNSCMPARKRWAPVVLWCLTGSSASRRRVKISTMLIEGCHCSPKA
In the case of B1, the “NAD+/NADH ratio” value ([1]; HUVECs exposed to DAND5) is reported as “decreased”, the glucose uptake ([1]; HUVECs, after 1 h) is reported as “reduced” and the lactate levels ([1]; HUVECs, after 1 h) is reported as “increased”. For the same molecule, the ATP levels ([1]; HUVECs, after 1 h of treatment) was “reduced”, the ATP levels ([1]; HUVECs, at 1, 6 and 24 hours) was “reduced” and the “number of vascular branch points” value ([2]; 100 ng at P1, P5) was “reduced number of vascular branch points”. For the same molecule, the “microvessel density (ratio of vessel area to vascularized area)” value [2, 3] was “pronounced reduction”, the “vessel area (area covered by vessels)” value [2, 3] was “pronounced reduction of vessel area” and the “EC proliferation in retinal vasculature (pH3)” value ([2]; P1 injection, P5) was “reduced EC proliferation”. For the same molecule, the “empty type IV collagen (ColIV) BM sleeves” value ([2]; P1 injection, P5) was “significantly higher numbers of empty type IV collagen (ColIV) BM sleeves”, the “inhibition of retinal neovascularization compared with VEGF inhibitor (mouse Flt1 Fc)” value ([2]; P1 injection, P5) was “significantly more pronounced than that of a VEGF inhibitor (mouse Flt1 Fc)” and the “empty type IV collagen (ColIV) BM sleeves” value ([2]; P1 injection, P5, listed as Dand5) was “increased”. For the same molecule, the blood vessel development ([2]; intravitreal 100 ng at P1, retinas at P5) was “dramatic inhibition of blood vessel development”, the “apoptosis in retinal vasculature (CC3)” value ([2]; mouse, in vivo) was “no change in apoptosis” and the “necroptosis in retinal vasculature (Rip3)” value ([2]; mouse, in vivo) was “no change in apoptosis (FIG. 11D, E) or necroptosis”. For the same molecule, the “photoreceptor morphology or apoptosis” value ([2]; mouse, in vivo) was “did not affect”, the retinal pericyte coverage ([2]; mouse, in vivo) was “did not affect retinal pericyte coverage” and the co-localization with mitochondria (mitochondria) was “robust co-localization of DAND5 with mitochondria”. For the same molecule, the co-localization with mitochondria (mitochondria; listed as Dand5) was “co-localizes with mitochondria”.
